Test [1] has as its target T1, C1q (from 3% pooled human serum) (human, UniProt P02745 23-245; P02746 28-253; P02747 29-245).
T1 construct: Native C1q of pooled human serum, detected with rabbit anti-human C1q
In words: ELISA, antibody coated, 3% pooled human serum, anti-C1q detection. The protocol: Plates were washed and blocked with PBS supplemented with 0.025% Tween 20 and 0.1% gelatine. […] Detection was performed by addition of 1 mg/mL 2,2′-azino-bis(3-ethylbenzothiazoline-6-sulfonic acid) (ABTS; Roche, Mannheim, Germany) for about 30 min. The reaction was stopped by the addition of 100 μL 2% oxalic acid. Absorbance was measured at 405 nm in a microplate reader (Biotek, Winooski, Vt.). Log transformed data were analyzed by fitting sigmoidal dose-response curves with variable slope using GraphPad Prism software.
A general note: ELISA stands for enzyme-linked immunosorbent assay.

The target of test [2] is T2, HER2 on HER2-positive AU565 cells (human, UniProt P04626 23-1255).
T2 construct: whole, on cells
The test can be described thus: FACS, AU565 cells. As for the experimental part: Cells (1×10^5 cells/well) were incubated in polystyrene 96-well round-bottom plates (Greiner bio-one 650101) with serial dilutions of antibody preparations (range 2 to 10000 ng/mL in 4-fold dilutions for Jurkat cells and range 1 to 3000 ng/mL in 4-fold dilutions for on AU565 cells) in 100 μL PBS/0.1% BSA/0.02% azide at 4° C. for 30 min.
After washing twice in PBS/0.1% BSA/0.02% azide, cells were incubated in 100 μL with secondary antibody at 4° C. for 30 min. As a secondary antibody, R-Phycoerythrin (PE)-conjugated goat-anti-human IgG F(ab′)₂ (109-116-098, Jackson ImmunoResearch Laboratories, Inc., West Grove, Pa.) diluted 1/100 in PBS/0.1% BSA/0.02% azide, was used for all experiments. Next, cells were washed twice in PBS/0.1% BSA/0.02% azide, resuspended in 150 μL PBS/0.1% BSA/0.02% azide and analyzed on a FACS CantoII (BD Biosciences). Binding curves were analyzed using non-linear regression (sigmoidal dose-response with variable slope) using GraphPad Prism V5.04 software (GraphPad Software, San Diego, Calif., USA).
On the technique in general: A flow cytometer gives signals particle by particle.

B1: bsIgG1-CD3×HER2-N297Q (IgG1-huCLB-T3/4×HER2-169 with N297Q) (bispecific antibody)
heavy 1: not shown
VL 1: EIVLTQSPATLSLSPGERATLSCSASSSVTYVHWYQQKPGQAPRLLIYDTSKLASGIPARFSGSGSGTDFTLTISSLEPEDFAVYYCFQGSGYPLTFGSGTKLEMR
heavy 2: not shown
VL 2: EIVLTQSPATLSLSPGERATLSCRASQSVSSYLAWYQQKPGQAPRLLIYDASNRATGIPARFSGSGSGTDFTLTISSLEPEDFAVYYCQQRSNWPRTFGQGTKVEIK
notes: also called NQ
Regarding B1, the binding result was “no binding (tested: coated at 7-30000 ng/mL)” in test [1] and “binds” in test [2].

B2: bsIgG1-CD3×HER2-… (IgG1-huCLB-T3/4×HER2-169 with L234F/L235E/D265A/N297Q/P331S) (bispecific antibody)
heavy 1: EVQLVESGGGLVKPGGSLRLSCAASGFTFSSYGMFWVRQAPGKGLEWVATISRYSRYIYYPDSVKGRFTISRDNAKNSLYLQMNSLRAEDTAVYYCARRPLYGSSPDYWGQGTLVTVSSASTKGPSVFPLAPSSKSTSGGTAALGCLVKDYFPEPVTVSWNSGALTSGVHTFPAVLQSSGLYSLSSVVTVPSSSLGTQTYICNVNHKPSNTKVDKRVEPKSCDKTHTCPPCPAPEFEGGPSVFLFPPKPKDTLMISRTPEVTCVVVAVSHEDPEVKFNWYVDGVEVHNAKTKPREEQYQSTYRVVSVLTVLHQDWLNGKEYKCKVSNKALPASIEKTISKAKGQPREPQVYTLPPSREEMTKNQVSLTCLVKGFYPSDIAVEWESNGQPENNYKTTPPVLDSDGSFLLYSKLTVDKSRWQQGNVFSCSVMHEALHNHYTQKSLSLSPGK
VL 1: EIVLTQSPATLSLSPGERATLSCSASSSVTYVHWYQQKPGQAPRLLIYDTSKLASGIPARFSGSGSGTDFTLTISSLEPEDFAVYYCFQGSGYPLTFGSGTKLEMR
heavy 2: QVQLVQSGAEVKKPGASVKVSCKASGYTFTNYGISWVRQAPGQGLEWMGWLSAYSGNTIYAQKLQGRVTMTTDTSTTTAYMELRSLRSDDTAVYYCARDRIVVRPDYFDYWGQGTLVTVSSASTKGPSVFPLAPSSKSTSGGTAALGCLVKDYFPEPVTVSWNSGALTSGVHTFPAVLQSSGLYSLSSVVTVPSSSLGTQTYICNVNHKPSNTKVDKRVEPKSCDKTHTCPPCPAPEFEGGPSVFLFPPKPKDTLMISRTPEVTCVVVAVSHEDPEVKFNWYVDGVEVHNAKTKPREEQYQSTYRVVSVLTVLHQDWLNGKEYKCKVSNKALPASIEKTISKAKGQPREPQVYTLPPSREEMTKNQVSLTCLVKGFYPSDIAVEWESNGQPENNYKTTPPVLDSDGSFFLYSRLTVDKSRWQQGNVFSCSVMHEALHNHYTQKSLSLSPGK
VL 2: EIVLTQSPATLSLSPGERATLSCRASQSVSSYLAWYQQKPGQAPRLLIYDASNRATGIPARFSGSGSGTDFTLTISSLEPEDFAVYYCQQRSNWPRTFGQGTKVEIK
On to B2, for which the figures for the binding result in test [1] and in test [2] were “no binding (tested: coated at 7-30000 ng/mL)” and “binds”, respectively.

Values taken from patent US20150337049A1 (Genmab, published 2015).
